Here are results for 7 substances from paper PMC11919701.

In experiment [1] the target is CtMrs2 106-539 in MSP1D1/POPC nanodiscs, open-state sample prepared with EDTA (Chaetomium thermophilum). Description: cryo-EM structure; open state: MSP1D1/POPC nanodiscs, 50 mM HEPES pH 7.5, 100 mM NaCl, 2 mM EDTA, 1 mM fluorinated Fos-choline-8; C1 and C5 maps.
The target in experiment [2] is CtMrs2 106-539 lacking GFP (TEV-cleaved), in MSP1D1/POPC nanodiscs, closed-state sample with Mg2+ (Chaetomium thermophilum). Description: cryo-EM structure; closed state: MSP1D1/POPC nanodiscs, 50 mM HEPES-Na pH 7.5, 100 mM NaCl, 2 mM MgCl2 plus additional 10 mM MgCl2; C1 and C5 maps.
The target of experiment [3] is GFP-fused CtMrs2 106-539 E374A;E378A (Chaetomium thermophilum). Description: SEC; purified GFP-fused CtMrs2 forms used for the limited proteolysis assay; final SEC buffer as buffer A but pH 8.0, DDM. Background: Size exclusion chromatography separates by hydrodynamic size, large species first.
The target of experiment [4] is GFP-fused CtMrs2 106-539 E374R (Chaetomium thermophilum). The description is as above.
Experiment [5] has as its target GFP-fused CtMrs2 106-539 S328A;T329A (Chaetomium thermophilum). The description is as above.
Experiment [6] deals with GFP-fused CtMrs2 106-539 S396A;S397A (Chaetomium thermophilum). The description is as above.
Experiment [7] addresses GFP-fused CtMrs2 (His10-GFP-G4S-TEV-CtMrs2 106-539), wild type (Chaetomium thermophilum). The description is as above.
For experiment [8] the target is unchanged. Description: SEC; detergent-solubilised GFP-fused CtMrs2 on Superose 6; buffer A (50 mM HEPES-NaOH pH 7.5, 150 mM NaCl, 10% glycerol) with 0.05% DDM and 2 mM MgCl2.
For experiment [9] the target is unchanged. Description: native gel or EMSA; Coomassie-stained blue native PAGE of purified detergent-solubilised GFP-fused CtMrs2.

What is called stoichiometry N is a count of units in the complex or per binding partner. As for “CtMrs2 106-539 in MSP1D1/POPC nanodiscs, open-state sample prepared with EDTA (natural protein)”, the stoichiometry N in [1] was 5.

“CtMrs2 106-539 lacking GFP (TEV-cleaved), in MSP1D1/POPC nanodiscs, closed-state sample with Mg2+ (natural protein)”: the stoichiometry N in experiment [2] was 5.

“GFP-fused CtMrs2 106-539 E374A;E378A (natural protein)” gave a stoichiometry N in experiment [3] of 5.

The substance “GFP-fused CtMrs2 106-539 E374R (natural protein)” registered a stoichiometry N in experiment [4] of 5.

In the case of “GFP-fused CtMrs2 106-539 S328A;T329A (natural protein)”, the stoichiometry N in [5] came out at 5.

In the case of “GFP-fused CtMrs2 106-539 S396A;S397A (natural protein)”, the stoichiometry N in experiment [6] is 5.

With “GFP-fused CtMrs2 (His10-GFP-G4S-TEV-CtMrs2 106-539), wild type (natural protein)”, the stoichiometry N in experiment [7], in experiment [8] and in [9] was 5 in each case.
